In IntAct's records for PubMed 31515488:

B1: Syntenin-2 (Homo sapiens), Q9H190 (parent)
chain: MSSLYPSLEDLKVDQAIQAQVRASPKMPALPVQATAISPPPVLYPNLAELENYMGLSLSSQEVQESLLQIPEGDSTAVSGPGPGQMVAPVTGYSLGVRRAEIKPGVREIHLCKDERGKTGLRLRKVDQGLFVQLVQANTPASLVGLRFGDQLLQIDGRDCAGWSSHKAHQVVKKASGDKIVVVVRDRPFQRTVTMHKDSMGHVGFVIKKGKIVSLVKGSSAARNGLLTNHYVCEVDGQNVIGLKDKKIMEILATAGNVVTLTIIPSVIYEHMVKKLPPVLLHHTMDHSIPDA
partner: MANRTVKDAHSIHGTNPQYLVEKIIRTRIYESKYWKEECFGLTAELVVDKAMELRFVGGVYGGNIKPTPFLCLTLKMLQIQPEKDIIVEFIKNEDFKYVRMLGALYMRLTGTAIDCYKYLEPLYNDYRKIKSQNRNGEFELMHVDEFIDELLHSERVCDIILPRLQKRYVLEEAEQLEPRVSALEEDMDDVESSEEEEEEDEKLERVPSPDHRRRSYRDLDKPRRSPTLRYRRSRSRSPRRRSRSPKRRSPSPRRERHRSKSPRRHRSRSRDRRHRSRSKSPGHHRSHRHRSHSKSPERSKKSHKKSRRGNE
B2: Spindle and kinetochore-associated protein 3 (Homo sapiens), Q8IX90 (parent)
chain: MDPIRSFCGKLRSLASTLDCETARLQRALDGEESDFEDYPMRILYDLHSEVQTLKDDVNILLDKARLENQEGIDFIKATKVLMEKNSMDIMKIREYFQKYGYSPRVKKNSVHEQEAINSDPELSNCENFQKTDVKDDLSDPPVASSCISEKSPRSPQLSDFGLERYIVSQVLPNPPQAVNNYKEEPVIVTPPTKQSLVKVLKTPKCALKMDDFECVTPKLEHFGISEYTMCLNEDYTMGLKNARNNKSEEAIDTESRLNDNVFATPSPIIQQLEKSDAEYTNSPLVPTFCTPGLKIPSTKNSIALVSTNYPLSKTNSSSNDLEVEDRTSLVLNSDTCFENLTDPSSPTISSYENLLRTPTPPEVTKIPEDILQLLSKYNSNLATPIAIKAVPPSKRFLKHGQNIRDVSNKEN
B3: Placental protein 13-like (Homo sapiens), Q8TCE9 (parent)
chain: MSSLPVPYTLPVSLPVGSCVIITGTPILTFVKDPQLEVNFYTGMDEDSDIAFQFRLHFGHPAIMNSCVFGIWRYEEKCYYLPFEDGKPFELCIYVRHKEYKVMVNGQRIYNFAHRFPPASVKMLQVFRDISLTRVLISD
B4: N-chimaerin (Homo sapiens), P15882 (parent)
chain: MALTLFDTDEYRPPVWKSYLYQLQQEAPHPRRITCTCEVENRPKYYGREFHGMISREAADQLLIVAEGSYLIRESQRQPGTYTLALRFGSQTRNFRLYYDGKHFVGEKRFESIHDLVTDGLITLYIETKAAEYIAKMTINPIYEHVGYTTLNREPAYKKHMPVLKETHDERDSTGQDGVSEKRLTSLVRRATLKENEQIPKYEKIHNFKVHTFRGPHWCEYCANFMWGLIAQGVKCADCGLNVHKQCSKMVPNDCKPDLKHVKKVYSCDLTTLVKAHTTKRPMVVDMCIREIESRGLNSEGLYRVSGFSDLIEDVKMAFDRDGEKADISVNMYEDINIITGALKLYFRDLPIPLITYDAYPKFIESAKIMDPDEQLETLHEALKLLPPAHCETLRYLMAHLKRVTLHEKENLMNAENLGIVFGPTLMRSPELDAMAALNDIRYQRLVVELLIKNEDILF
B5: Syntaxin-3 (Homo sapiens), Q13277 (parent)
chain: MKDRLEQLKAKQLTQDDDTDAVEIAIDNTAFMDEFFSEIEETRLNIDKISEHVEEAKKLYSIILSAPIPEPKTKDDLEQLTTEIKKRANNVRNKLKSMEKHIEEDEVRSSADLRIRKSQHSVLSRKFVEVMTKYNEAQVDFRERSKGRIQRQLEITGKKTTDEELEEMLESGNPAIFTSGIIDSQISKQALSEIEGRHKDIVRLESSIKELHDMFMDIAMLVENQGEMLDNIELNVMHTVDHVEKARDETKKAVKYQSQARKKLIIIIVLVVVLLGILALIIGLSVGLN
partner: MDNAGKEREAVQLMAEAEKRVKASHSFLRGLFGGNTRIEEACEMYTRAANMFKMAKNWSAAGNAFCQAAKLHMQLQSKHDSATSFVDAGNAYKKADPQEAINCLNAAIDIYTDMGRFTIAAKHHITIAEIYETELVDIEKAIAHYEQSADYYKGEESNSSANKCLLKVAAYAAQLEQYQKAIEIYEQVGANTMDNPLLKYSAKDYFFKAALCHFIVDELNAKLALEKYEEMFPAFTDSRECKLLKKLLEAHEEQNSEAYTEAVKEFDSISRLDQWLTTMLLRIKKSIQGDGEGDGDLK
B6: Protein DBF4 homolog B (Homo sapiens), Q8NFT6 (parent)
chain: MSEPGKGDDCLELESSMAESRLRAPDLGVSRCLGKCQKNSPGARKHPFSGKSFYLDLPAGKNLQFLTGAIQQLGGVIEGFLSKEVSYIVSSRREVKAESSGKSHRGCPSPSPSEVRVETSAMVDPKGSHPRPSRKPVDSVPLSRGKELLQKAIRNQGSISGGGSGGSSSLLTNARSWGVRILHVDEMMMHVQQLSLASLCVKKQQPKKPEGTCPAAESRTRKVARLKAPFLKIEDESRKFRPFHHQFKSFPEISFLGPKDASPFEAPTTLGSMHHTRESKDGEPSPRSAAHTMPRRKKGYCECCQEAFEELHVHLQSAQHRSFALEAHLYAEVDRIIAQLSHSFADIPFQAGLPRWSGSPASDCDPLCPETLHPHQPSHPRAASPRIRKEDSCQASVTQGRAAGQQRWTESLDGVMGPPASHTCVSATTLLPALPKGSREQGCLCPCPASFTQSHLVTSLALLPGEWSPAEDMPLHPSQENSFAPADIPVKGPLLFPEARPWLMSARCWVRPFPFVTWGCLIPHDTTPLHEEVSPCPCLRLGYLYLLLTQSLWCRVRVPSLSTAGPIPRTSHPCTLAFPSYLNDHDLGHLCQAKPQGWNTPQPFLHCGFLAVDSG
B7: Phospholipid scramblase 4 (Homo sapiens), Q9NRQ2 (parent)
chain: MSGVVPTAPEQPAGEMENQTKPPDPRPDAPPEYNSHFLPGPPGTAVPPPTGYPGGLPMGYYSPQQPSTFPLYQPVGGIHPVRYQPGKYPMPNQSVPITWMPGPTPMANCPPGLEYLVQLDNIHVLQHFEPLEMMTCFETNNRYDIKNNSDQMVYIVTEDTDDFTRNAYRTLRPFVLRVTDCMGREIMTMQRPFRCTCCCFCCPSARQELEVQCPPGVTIGFVAEHWNLCRAVYSIQNEKKENVMRVRGPCSTYGCGSDSVFEVKSLDGISNIGSIIRKWNGLLSAMADADHFDIHFPLDLDVKMKAMIFGACFLIDFMYFERSPPQRSR
partner: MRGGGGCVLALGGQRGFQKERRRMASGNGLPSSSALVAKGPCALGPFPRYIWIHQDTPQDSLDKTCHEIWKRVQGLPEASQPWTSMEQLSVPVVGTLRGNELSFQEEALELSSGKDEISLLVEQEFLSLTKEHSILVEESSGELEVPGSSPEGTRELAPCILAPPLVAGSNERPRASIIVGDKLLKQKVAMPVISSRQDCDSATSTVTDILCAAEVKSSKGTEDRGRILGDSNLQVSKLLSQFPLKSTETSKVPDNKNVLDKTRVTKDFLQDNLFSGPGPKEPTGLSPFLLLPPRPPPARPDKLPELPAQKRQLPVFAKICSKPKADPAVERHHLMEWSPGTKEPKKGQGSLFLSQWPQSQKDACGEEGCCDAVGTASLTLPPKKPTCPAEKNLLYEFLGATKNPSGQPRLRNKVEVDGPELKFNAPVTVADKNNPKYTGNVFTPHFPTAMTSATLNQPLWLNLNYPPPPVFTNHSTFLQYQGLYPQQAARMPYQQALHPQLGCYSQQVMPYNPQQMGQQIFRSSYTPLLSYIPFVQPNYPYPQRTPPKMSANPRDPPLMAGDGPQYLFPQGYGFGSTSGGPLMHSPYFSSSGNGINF
B8: U3 small nucleolar RNA-associated protein 14 homolog A (Homo sapiens), Q9BVJ6 (parent)
chain: MTANRLAESLLALSQQEELADLPKDYLLSESEDEGDNDGERKHQKLLEAISSLDGKNRRKLAERSEASLKVSEFNVSSEGSGEKLVLADLLEPVKTSSSLATVKKQLSRVKSKKTVELPLNKEEIERIHREVAFNKTAQVLSKWDPVVLKNRQAEQLVFPLEKEEPAIAPIEHVLSGWKARTPLEQEIFNLLHKNKQPVTDPLLTPVEKASLRAMSLEEAKMRRAELQRARALQSYYEAKARREKKIKSKKYHKVVKKGKAKKALKEFEQLRKVNPAAALEELEKIEKARMMERMSLKHQNSGKWAKSKAIMAKYDLEARQAMQEQLSKNKELTQKLQVASESEEEEGGTEDVEELLVPDVVNEVQMNADGPNPWMLRSCTSDTKEAATQEDPEQLPELEAHGVSESEGEERPVAEEEILLREFEERRSLRKRSELSQDAEPAGSQETKDSGSQEVLSELRVLSQKLKENHQSRKQKASSEGTIPQVQREEPAPEEEEPLLLQRPERVQTLEELEELGKEECFQNKELPRPVLEGQQSERTPNNRPDAPKEKKKKEQMIDLQNLLTTQSPSVKSLAVPTIEELEDEEERNHRQMIKEAFAGDDVIRDFLKEKREAVEASKPKDVDLTLPGWGEWGGVGLKPSAKKRRRFLIKAPEGPPRKDKNLPNVIINEKRNIHAAAHQVRVLPYPFTHHWQFERTIQTPIGSTWNTQRAFQKLTTPKVVTKPGHIINPIKAEDVGYRSSSRSDLSVIQRNPKRITTRHKKQLKKCSVD
B9: L-fucose dehydrogenase (Homo sapiens), Q9BPX1 (parent)
chain: MATGTRYAGKVVVVTGGGRGIGAGIVRAFVNSGARVVICDKDESGGRALEQELPGAVFILCDVTQEDDVKTLVSETIRRFGRLDCVVNNAGHHPPPQRPEETSAQGFRQLLELNLLGTYTLTKLALPYLRKSQGNVINISSLVGAIGQAQAVPYVATKGAVTAMTKALALDESPYGVRVNCISPGNIWTPLWEELAALMPDPRATIREGMLAQPLGRMGQPAEVGAAAVFLASEANFCTGIELLVTGGAELGYGCKASRSTPVDAPDIPS

Variants of: B1
Details: with pr38a_human PRPF38A

| Variant | effect of a mutation on the interaction |
| --- | --- |
| V182M | with no effect |

Variants of: B2
Details: with ska1_human SKA1, Q96BD8
ska1_human SKA1, Q96BD8, sequence (Q96BD8 whole entry): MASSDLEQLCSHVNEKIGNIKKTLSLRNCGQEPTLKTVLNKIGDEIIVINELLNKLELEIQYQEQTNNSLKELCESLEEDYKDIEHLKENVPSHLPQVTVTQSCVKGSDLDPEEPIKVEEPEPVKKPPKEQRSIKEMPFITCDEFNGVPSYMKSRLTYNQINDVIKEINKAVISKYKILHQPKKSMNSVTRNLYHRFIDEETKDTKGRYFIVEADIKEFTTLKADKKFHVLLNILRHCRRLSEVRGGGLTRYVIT

| Variant | effect of a mutation on the interaction |
| --- | --- |
| V187I | with no effect |
| A28V | with no effect |
| D335E | with no effect |
| R396M | with no effect |
| T348M | with no effect |
| T254A | with no effect |

Variants of: B3
Details: with trim1_human MID2, Q9UJV3
trim1_human MID2, Q9UJV3, sequence (Q9UJV3 whole entry): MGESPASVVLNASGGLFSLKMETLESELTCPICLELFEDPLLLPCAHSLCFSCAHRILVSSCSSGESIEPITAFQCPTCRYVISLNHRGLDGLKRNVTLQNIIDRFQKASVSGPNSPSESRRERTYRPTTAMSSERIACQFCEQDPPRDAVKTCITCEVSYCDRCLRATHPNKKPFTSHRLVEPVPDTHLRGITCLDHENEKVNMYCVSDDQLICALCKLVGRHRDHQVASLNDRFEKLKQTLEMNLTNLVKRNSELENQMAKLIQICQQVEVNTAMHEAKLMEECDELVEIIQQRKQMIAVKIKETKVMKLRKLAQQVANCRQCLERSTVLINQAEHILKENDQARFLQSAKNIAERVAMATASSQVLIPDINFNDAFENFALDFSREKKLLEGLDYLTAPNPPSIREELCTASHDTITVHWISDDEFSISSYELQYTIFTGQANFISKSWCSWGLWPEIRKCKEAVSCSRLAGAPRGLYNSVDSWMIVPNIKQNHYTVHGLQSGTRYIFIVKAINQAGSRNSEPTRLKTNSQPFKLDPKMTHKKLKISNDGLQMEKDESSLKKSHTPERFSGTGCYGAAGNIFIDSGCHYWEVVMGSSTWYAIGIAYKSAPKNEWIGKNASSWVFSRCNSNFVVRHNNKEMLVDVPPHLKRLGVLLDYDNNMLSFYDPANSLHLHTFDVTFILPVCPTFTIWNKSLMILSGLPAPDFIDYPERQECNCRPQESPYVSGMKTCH

| Variant | effect of a mutation on the interaction |
| --- | --- |
| M123T | disrupting interaction strength |

Variants of: B3
Details: with ikzf3_human IKZF3, Q9UKT9
ikzf3_human IKZF3, Q9UKT9, sequence (Q9UKT9 whole entry): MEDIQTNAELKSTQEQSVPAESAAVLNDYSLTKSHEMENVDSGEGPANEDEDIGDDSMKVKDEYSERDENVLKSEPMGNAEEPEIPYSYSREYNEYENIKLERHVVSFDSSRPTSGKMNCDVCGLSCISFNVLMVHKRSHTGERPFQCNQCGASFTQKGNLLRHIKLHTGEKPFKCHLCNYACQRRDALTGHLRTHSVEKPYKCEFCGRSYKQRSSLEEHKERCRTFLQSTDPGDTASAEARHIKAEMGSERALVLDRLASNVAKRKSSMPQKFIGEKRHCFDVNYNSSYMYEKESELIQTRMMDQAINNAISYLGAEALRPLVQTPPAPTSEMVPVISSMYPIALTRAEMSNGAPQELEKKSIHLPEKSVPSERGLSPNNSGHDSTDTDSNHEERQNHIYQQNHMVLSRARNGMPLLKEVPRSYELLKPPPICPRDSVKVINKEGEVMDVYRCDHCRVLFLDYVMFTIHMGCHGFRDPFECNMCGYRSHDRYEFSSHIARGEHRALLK

| Variant | effect of a mutation on the interaction |
| --- | --- |
| M123T | disrupting interaction strength |

Variants of: B3
Details: with itf2_human TCF4, P15884

| Variant | effect of a mutation on the interaction |
| --- | --- |
| M123T | disrupting interaction strength |

Variants of: B3
Details: with gfap_human GFAP

| Variant | effect of a mutation on the interaction |
| --- | --- |
| M123T | disrupting interaction strength |

Variants of: B4
Details: with nck2_human NCK2, O43639
nck2_human NCK2, O43639, sequence (O43639 whole entry): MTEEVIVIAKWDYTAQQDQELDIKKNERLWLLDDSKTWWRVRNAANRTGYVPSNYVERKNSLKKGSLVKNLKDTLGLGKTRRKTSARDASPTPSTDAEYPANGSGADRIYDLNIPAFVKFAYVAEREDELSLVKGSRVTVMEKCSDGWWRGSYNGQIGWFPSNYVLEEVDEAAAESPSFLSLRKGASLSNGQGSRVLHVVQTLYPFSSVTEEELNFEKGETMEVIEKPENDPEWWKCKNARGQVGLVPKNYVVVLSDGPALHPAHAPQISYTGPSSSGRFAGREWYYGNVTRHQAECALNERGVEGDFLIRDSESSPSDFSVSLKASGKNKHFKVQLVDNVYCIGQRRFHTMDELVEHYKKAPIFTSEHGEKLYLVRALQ

| Variant | effect of a mutation on the interaction |
| --- | --- |
| D115N | with no effect |

Variants of: B5
Details: with snab_human NAPB

| Variant | effect of a mutation on the interaction |
| --- | --- |
| G276S | with no effect |
| H198Y | with no effect |

Variants of: B6
Details: with tri23_human TRIM23, P36406
tri23_human TRIM23, P36406, sequence (P36406 whole entry): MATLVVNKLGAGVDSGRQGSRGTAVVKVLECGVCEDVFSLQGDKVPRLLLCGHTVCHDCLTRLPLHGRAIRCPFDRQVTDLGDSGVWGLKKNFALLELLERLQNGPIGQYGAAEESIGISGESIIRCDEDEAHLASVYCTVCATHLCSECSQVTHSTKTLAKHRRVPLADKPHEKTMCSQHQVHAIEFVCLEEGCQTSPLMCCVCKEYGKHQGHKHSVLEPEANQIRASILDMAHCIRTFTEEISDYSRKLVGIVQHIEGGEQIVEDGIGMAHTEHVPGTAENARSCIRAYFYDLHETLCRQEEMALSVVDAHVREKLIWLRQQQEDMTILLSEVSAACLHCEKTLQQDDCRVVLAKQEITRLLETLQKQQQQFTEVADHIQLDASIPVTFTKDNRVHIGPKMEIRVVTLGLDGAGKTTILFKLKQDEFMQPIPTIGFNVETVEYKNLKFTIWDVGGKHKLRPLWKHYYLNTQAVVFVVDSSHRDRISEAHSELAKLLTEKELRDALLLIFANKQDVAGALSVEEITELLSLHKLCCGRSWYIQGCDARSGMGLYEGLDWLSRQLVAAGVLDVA

| Variant | effect of a mutation on the interaction |
| --- | --- |
| L199S | disrupting interaction strength |

Variants of: B7
Details: with ca094_human C1orf94, Q6P1W5

| Variant | effect of a mutation on the interaction |
| --- | --- |
| I155V | with no effect |
| N34S | with no effect |
| A107S | with no effect |

Variants of: B8
Details: with ldoc1_human LDOC1, O95751
ldoc1_human LDOC1, O95751, sequence (O95751 whole entry): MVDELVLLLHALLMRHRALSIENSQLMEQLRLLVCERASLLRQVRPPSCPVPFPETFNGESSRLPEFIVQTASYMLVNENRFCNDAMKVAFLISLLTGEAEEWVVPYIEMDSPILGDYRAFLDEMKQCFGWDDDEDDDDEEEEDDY

| Variant | effect of a mutation on the interaction |
| --- | --- |
| T579A | with no effect |
| V487A | with no effect |

Variants of: B8
Details: with cep70_human CEP70, Q8NHQ1
cep70_human CEP70, Q8NHQ1, sequence (Q8NHQ1 whole entry): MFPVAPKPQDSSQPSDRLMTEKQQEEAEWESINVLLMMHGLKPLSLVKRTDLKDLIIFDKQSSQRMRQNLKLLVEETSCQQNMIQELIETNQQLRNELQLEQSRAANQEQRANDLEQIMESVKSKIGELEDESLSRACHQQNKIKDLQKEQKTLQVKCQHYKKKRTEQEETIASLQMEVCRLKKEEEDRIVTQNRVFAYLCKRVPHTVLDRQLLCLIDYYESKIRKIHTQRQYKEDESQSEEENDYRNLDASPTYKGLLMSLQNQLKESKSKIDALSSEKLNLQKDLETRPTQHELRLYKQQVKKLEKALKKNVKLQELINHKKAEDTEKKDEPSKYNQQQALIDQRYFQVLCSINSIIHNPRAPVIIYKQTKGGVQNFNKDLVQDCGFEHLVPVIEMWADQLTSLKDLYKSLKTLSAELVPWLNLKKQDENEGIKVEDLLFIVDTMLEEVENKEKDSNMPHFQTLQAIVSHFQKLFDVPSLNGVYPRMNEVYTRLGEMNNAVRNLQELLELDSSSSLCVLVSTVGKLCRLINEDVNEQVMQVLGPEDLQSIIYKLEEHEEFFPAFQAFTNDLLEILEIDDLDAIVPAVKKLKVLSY

| Variant | effect of a mutation on the interaction |
| --- | --- |
| V256M | with no effect |

Variants of: B9
Details: with psa1_human PSMA1, P25786
psa1_human PSMA1, P25786, sequence (P25786 whole entry): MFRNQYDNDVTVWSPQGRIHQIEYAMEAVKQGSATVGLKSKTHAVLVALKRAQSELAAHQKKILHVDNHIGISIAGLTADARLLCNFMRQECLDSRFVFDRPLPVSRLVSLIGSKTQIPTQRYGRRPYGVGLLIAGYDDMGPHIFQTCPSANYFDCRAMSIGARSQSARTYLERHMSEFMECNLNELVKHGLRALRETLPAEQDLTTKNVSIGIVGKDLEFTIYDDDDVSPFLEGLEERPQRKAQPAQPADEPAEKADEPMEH

| Variant | effect of a mutation on the interaction |
| --- | --- |
| G16W | with no effect |

Variants of: B9
Details: with phf1_human PHF1, O43189
phf1_human PHF1, O43189, sequence (O43189 whole entry): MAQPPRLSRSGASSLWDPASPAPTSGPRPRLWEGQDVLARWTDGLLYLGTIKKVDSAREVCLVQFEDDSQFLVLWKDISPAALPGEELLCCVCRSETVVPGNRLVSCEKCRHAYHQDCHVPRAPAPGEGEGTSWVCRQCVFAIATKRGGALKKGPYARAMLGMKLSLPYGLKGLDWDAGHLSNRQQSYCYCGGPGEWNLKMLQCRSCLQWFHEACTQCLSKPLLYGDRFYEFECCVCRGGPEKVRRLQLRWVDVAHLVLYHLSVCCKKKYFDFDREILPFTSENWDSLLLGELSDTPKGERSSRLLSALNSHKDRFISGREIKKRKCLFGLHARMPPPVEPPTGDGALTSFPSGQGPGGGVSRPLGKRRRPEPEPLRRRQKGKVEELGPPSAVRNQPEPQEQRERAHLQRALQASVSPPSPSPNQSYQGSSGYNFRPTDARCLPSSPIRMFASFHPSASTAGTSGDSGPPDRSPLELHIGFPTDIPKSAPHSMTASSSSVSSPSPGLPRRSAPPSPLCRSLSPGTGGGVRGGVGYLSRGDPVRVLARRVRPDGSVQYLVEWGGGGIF

| Variant | effect of a mutation on the interaction |
| --- | --- |
| G16W | with no effect |

Variants of: B9
Details: with cah8_human CA8, P35219
cah8_human CA8, P35219, sequence (P35219 whole entry): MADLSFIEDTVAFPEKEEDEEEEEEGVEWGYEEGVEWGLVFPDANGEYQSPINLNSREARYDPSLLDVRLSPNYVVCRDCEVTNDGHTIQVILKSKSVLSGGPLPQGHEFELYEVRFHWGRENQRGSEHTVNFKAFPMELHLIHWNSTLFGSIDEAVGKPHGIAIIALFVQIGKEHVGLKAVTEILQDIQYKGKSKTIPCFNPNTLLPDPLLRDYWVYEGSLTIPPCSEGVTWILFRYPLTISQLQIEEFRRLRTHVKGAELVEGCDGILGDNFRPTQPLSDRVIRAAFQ

| Variant | effect of a mutation on the interaction |
| --- | --- |
| G16W | with no effect |
